We go through ten molecules from article PMC2897767, “Two Distinct Mechanisms for Actin Capping Protein Regulation—Steric and Allosteric Inhibition” (PLoS Biology, 2010).

As a reminder, the Kd is the constant that tells how readily two partners part at equilibrium. Read a low Kd as tighter binding. One may read the koff as the first-order rate constant of dissociation. Read a low koff as slow dissociation. One may read the kon as the second-order rate constant of association. A low value points to slower complex formation.

Details in all cases: both partners purified
Experiment [1] concerns the target T1, actin capping protein (CP), chicken α1/β1, CP_full (chicken, UniProt P13127 1-286; P14315 1-277). Kind of experiment: SPR; as a1, but koff >0.1 s^-1: amount of bound CP at the steady state plotted against the concentration of CP (Michaelis-Menten plots under saturated binding conditions).
Experiment [2] deals with T1, actin capping protein (CP), chicken …. Kind of experiment: SPR; GST-fusion protein (GST-V-1, GST-CA or GST-CD) immobilised on a CM5 chip via anti-GST antibodies (up to 200 RU), CP perfused at 20 µl/min; 20°C; 50 mM KCl, 1 mM MgCl2, 0.005% Tween-20, 10 mM imidazole pH 7.0; 1:1 fit, KD from the kinetic rate constants (steady state for several fast-dissociating mutants).
The target in a further experiment is CP (β) D44N (chicken, UniProt P13127 1-286; P14315 1-277, D44N). The experiment can be described thus: SPR; as a1, but koff >0.1 s^-1: amount of bound CP at the steady state plotted against the concentration of CP (Michaelis-Menten plots under saturated binding conditions). For orientation: In SPR one partner is held on a chip, and binding of the other changes the refractive index at the surface.

A further experiment has as its target CP (β) D63N (chicken, UniProt P13127 1-286; P14315 1-277, D63N). The experiment is described as above.
In the next experiment the target is CP (β) D67N (chicken, UniProt P13127 1-286; P14315 1-277, D67N). The description is as above.
The next experiment concerns the target CP (β) Y64F (chicken, UniProt P13127 1-286; P14315 1-277, Y64F). The experiment can be described thus: SPR; GST-fusion protein (GST-V-1, GST-CA or GST-CD) immobilised on a CM5 chip via anti-GST antibodies (up to 200 RU), CP perfused at 20 µl/min; 20°C; 50 mM KCl, 1 mM MgCl2, 0.005% Tween-20, 10 mM imidazole pH 7.0; 1:1 fit, KD from the kinetic rate constants (steady state for several fast-dissociating mutants).

In experiment [3] the target is CPβΔC (chicken α1 full/β1 1–244; a deletion mutant CP lacking the β-tentacle) (chicken, UniProt P13127 1-286; P14315 1-244). Kind of experiment: crystal structure; complexes formed with 1.2–2.0-fold molar excess of V-1 or peptide and purified by gel filtration; hanging-drop vapor diffusion at 20°C; molecular replacement. On the technique in general: In gel filtration, larger molecules generally elute earlier.

The target of experiment [4] is T1, actin capping protein (CP), chicken …. Kind of experiment: SPR; competition: GST-CA92 immobilised, perfused with 50 nM wild type CP pre-mixed with various concentrations of CARMIL peptides (CA21 up to 500 nM).

B1: GST-CA55 (domain or fragment)
chain: FPSVRQEKRSSGLISELPSEEGRRLEHFTKLRPKRNKKQQPTQAAVCTISILPQD
notes: CARMIL, mouse, residues 962–1016
In experiment [1], B1 had a Kd of 4000 nM and an off-rate constant (koff) of more than 0.1 s⁻¹.

B2: GST-CD47 (domain or fragment)
chain: FDSLTVRTSKETDVVNFDDIASSENLLHLTANRPKMPGRRLPGRFNG
notes: CD2AP, human, residues 461–507; cloned into pGEX-6P-1
As to B2, in experiment [2], the Kd was 18 nM, the koff worked out at 0.029 s⁻¹ and the association rate constant (kon) was determined as 1.6e+06 M⁻¹ s⁻¹.

B3: GST-CA76 (domain or fragment)
chain: FPSVRQEKRSSGLISELPSEEGRRLEHFTKLRPKRNKKQQPTQAAVCTISILPQDGEQNGLMGRVDEGVDEFFTKK
notes: CARMIL, mouse, residues 962–1037
In experiment [2], B3 displayed a Kd of 80 nM, a koff of 0.019 s⁻¹ and an on-rate constant (kon) of 230000 M⁻¹ s⁻¹.

B4: GST-CD43 (domain or fragment)
chain: FDSLTVRTSKETDVVNFDDIASSENLLHLTANRPKMPGRRLPG
notes: CD2AP, human, residues 461–503; cloned into pGEX-6P-1
In experiment [1], B4 registered a Kd of 260 nM and a koff of more than 0.1 s⁻¹.

B5: GST-CD44 (domain or fragment)
chain: FDSLTVRTSKETDVVNFDDIASSENLLHLTANRPKMPGRRLPGR
notes: CD2AP, human, residues 461–504; cloned into pGEX-6P-1
As to B5, in experiment [2], the Kd is 62 nM, the koff came out at 0.033 s⁻¹ and the kon came to 540000 M⁻¹ s⁻¹.

B6: GST-CA92 (domain or fragment)
chain: FPSVRQEKRSSGLISELPSEEGRRLEHFTKLRPKRNKKQQPTQAAVCTISILPQDGEQNGLMGRVDEGVDEFFTKKVTKMDCKRSSSRSSDA
notes: CARMIL, mouse, residues 962–1053
For the molecule B6, the Kd was 7400 nM with CP (β) D44N; 1400 nM with CP (β) D63N; 4900 nM with CP (β) D67N; 3.3 nM in experiment [2]; 10 nM with CP (β) Y64F. For the same molecule, the koff with CP (β) D44N was more than 0.1 s⁻¹; with CP (β) D63N it was more than 0.1 s⁻¹; with CP (β) D67N, more than 0.1 s⁻¹; in experiment [2], 0.0052 s⁻¹; with CP (β) Y64F, 0.0046 s⁻¹. Besides, the results for the kon (in experiment [2]; in the experiment with CP (β) Y64F) were 1.6e+06 M⁻¹ s⁻¹ and 460000 M⁻¹ s⁻¹, respectively.

B7: GST-CA63 (domain or fragment)
chain: FPSVRQEKRSSGLISELPSEEGRRLEHFTKLRPKRNKKQQPTQAAVCTISILPQDGEQNGLMG
notes: CARMIL, mouse, residues 962–1024
B7: in experiment [1], the affinity, expressed as Kd, was 3300 nM and the koff was more than 0.1 s⁻¹.

B8: CD23, human CD2AP (485–507) (peptide)
peptide: NLLHLTANRPKMPGRRLPGRFNG
notes: CD2AP, human, residues 485–507; also called CARMIL peptide; source: synthetic peptide, Invitrogen
B8: the binding result in experiment [3] and in experiment [4] was “binds” each time.

B9: CK23, human CKIP-1 (148–70) (peptide)
peptide: SYLAHPTRDRAKIQHSRRPPTRG
notes: CKIP-1, human, residues printed as 148–70, read as 148–170 (23 residues); also called CARMIL peptide; source: synthetic peptide, Invitrogen
Take B9: the binding result in experiment [3] and in experiment [4] was “binds” throughout.

B10: CA21, mouse CARMIL (residues 985–1005) (peptide)
peptide: RLEHFTKLRPKRNKKQQPTQA
notes: CARMIL, mouse, residues 985–1005; also called CARMIL peptide; source: synthetic peptide, Invitrogen
For B10, the binding result in experiment [3] and in experiment [4] was “binds” each time.
